Laboratory results: article PMC3525768

Target: T1, AgrAC (AgrA C-terminal LytTR domain) (Staphylococcus aureus, UniProt P0A0I7 137-238)
T1 sequence: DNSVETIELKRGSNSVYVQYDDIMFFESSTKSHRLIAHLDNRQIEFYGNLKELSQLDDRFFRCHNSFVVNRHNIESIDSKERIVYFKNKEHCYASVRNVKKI
Assay: EMSA

B1: 19-bp AgrA target DNA duplex (dsDNA)
DNA 1: ATTTAACAGTTAAGTATTT
DNA 2: AAATACTTAACTGTTAAAT
  binding result: binds
